This experiment addresses T1, CD3 ζ SNID2 peptide (22-mer) (human).
T1 construct: also called second ITAM motif of CD3 ζ; source: synthetic peptide (in house, Boc chemistry, RP-HPLC)
T1 peptide: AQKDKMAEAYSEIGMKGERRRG
The experiment in a line: ITC; Nef (typically 200 µM) injected stepwise from the syringe into 20 µM CD3 ζ peptide in the cell; 20 mM HEPES pH 8.0, 100 mM NaCl, 25 °C; MicroCal iTC200. The settings on record: both partners purified.

Results on 1 molecule are retold here after PMC5585231, “Endocytic sorting motif interactions involved in Nef-mediated downmodulation of CD4 and CD3” (Nature Communications, 2017).

A word on the stoichiometry N: it is a count of units in the complex or per binding partner.

B1: SIVmac239 Nef (66-235) (domain or fragment)
chain: MATPWRNPAEEREKLAYRKQNMDDIDEEDDDLVGVSVRPKVPLRTMSYKLAIDMSHFIKEKGGLEGIYYSARRHRILDIYLEKEEGIIPDWQDYTSGPGIRYPKTFGWLWKLVPVNVSDEAQEDEEHYLMHPAQTSQWDDPWGEVLAWKFDPTLAYTYEAYVRYPEEFGS
notes: pGEX-4T1 with a TEV site; also called SIV-B; SIV Nef-B; source: E. coli BL21(DE3), purified (GSH resin, size exclusion chromatography)
Turning to B1, the “stoichiometry N” value was determined as 1.07.
